In assay [1] the target is T1, recombinant human CD3 epsilon/gamma heterodimer (human, UniProt P07766 23-126; P09693 23-116).
T1 construct: Recombinant protein in solution (200-50 nM) in the Octet assay; also called hCD3 E/G
Put plainly: Octet BLI, mAb on FAB2G sensor, hCD3 E/G 200-50 nM; R^2 0.96.

Assay [2] deals with T2, recombinant human CD3 epsilon/delta heterodimer (human, UniProt P07766 23-126; P04234 22-105).
T2 construct: Recombinant protein in solution (200-50 nM) in the Octet assay; also called hCD3 E/D; human CD3E/D
Put plainly: Octet BLI, mAb on FAB2G sensor, hCD3 E/D 200-50 nM; R^2 0.95.

Assay [3] addresses T1, recombinant human CD3 epsilon/gamma …. Put plainly: Octet BLI, mAb on FAB2G sensor, hCD3 E/G 200-50 nM; R^2 0.76.
The target of assay [4] is T2, recombinant human CD3 epsilon/delta …. Put plainly: Octet BLI, mAb on FAB2G sensor, hCD3 E/D 200-50 nM; R^2 1.00.
Assay [5] deals with T1, recombinant human CD3 epsilon/gamma …. Put plainly: Octet BLI, mAb on FAB2G sensor, hCD3 E/G 200-50 nM; R^2 0.00.
Assay [6] has the same target. Put plainly: Octet BLI, mAb on FAB2G sensor, hCD3 E/G 200-50 nM; R^2 0.92.
Assay [7] deals with T2, recombinant human CD3 epsilon/delta …. Put plainly: Octet BLI, mAb on FAB2G sensor, hCD3 E/D 200-50 nM; R^2 0.94.
For assay [8] the target is unchanged. Put plainly: Octet BLI, mAb on FAB2G sensor, hCD3 E/D 200-50 nM; R^2 0.96.
Assay [9] addresses T1, recombinant human CD3 epsilon/gamma …. Put plainly: Octet BLI, mAb on FAB2G sensor, hCD3 E/G 200-50 nM; R^2 0.64.
Assay [10] has the same target. Put plainly: Octet BLI, mAb on FAB2G sensor, hCD3 E/G 200-50 nM; R^2 0.85.
The target is the same in assay [11]. Put plainly: Octet BLI, mAb on FAB2G sensor, hCD3 E/G 200-50 nM; R^2 0.95.
Assay [12] addresses T2, recombinant human CD3 epsilon/delta …. Put plainly: Octet BLI, mAb on FAB2G sensor, hCD3 E/D 200-50 nM; R^2 0.98.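 Also: antibodies purified from hybridoma supernatants, measured by Octet binding to recombinant human CD3 protein.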
For assay [13], the target named is T1, recombinant human CD3 epsilon/gamma …. Put plainly: Octet BLI, mAb on FAB2G sensor, hCD3 E/G 200-50 nM; R^2 0.59.
The target in assay [14] is T2, recombinant human CD3 epsilon/delta …. Put plainly: Octet BLI, mAb on FAB2G sensor, hCD3 E/D 200-50 nM; R^2 0.92.
Assay [15] has as its target recombinant CD3 proteins. Put plainly: Octet (BLI), bispecific antibody against recombinant CD3 proteins; Full R^2 0.00.
Assay [16] concerns the target CD3 on effector cells (human Pan-T or PBMC) (human, UniProt P07766 23-207; P04234 22-171; P09693 23-182; P20963 22-164). Put plainly: cell-based or functional assay.
The target of assay [17] is recombinant CD3 proteins. Put plainly: Octet (BLI), bispecific antibody against recombinant CD3 proteins.

The results in this text go back to US20260167721A1 (ABLEXIS, published 2026).

Where only a bound is given, the exact number is not on record here.

T2 sequence (P07766 23-126, stated change not applied, chain 1 of 2): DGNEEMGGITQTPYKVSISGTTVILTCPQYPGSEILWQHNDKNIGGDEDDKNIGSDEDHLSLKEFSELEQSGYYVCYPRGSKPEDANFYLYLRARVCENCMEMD
T2 sequence (P04234 22-105, stated change not applied, chain 2 of 2): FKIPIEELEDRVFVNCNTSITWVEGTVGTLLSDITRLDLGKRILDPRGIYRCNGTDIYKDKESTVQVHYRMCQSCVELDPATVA
T1 sequence (P07766 23-126, chain 1 of 2): as the sequence (P07766 23-126, stated change not applied, chain 1 of 2) above
T1 sequence (P09693 23-116, chain 2 of 2): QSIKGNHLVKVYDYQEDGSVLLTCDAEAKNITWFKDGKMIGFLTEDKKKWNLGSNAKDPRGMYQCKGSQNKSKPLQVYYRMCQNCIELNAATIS
Chain of CD3 on effector cells (human Pan-T or PBMC) (P07766 23-207, chain 1 of 4): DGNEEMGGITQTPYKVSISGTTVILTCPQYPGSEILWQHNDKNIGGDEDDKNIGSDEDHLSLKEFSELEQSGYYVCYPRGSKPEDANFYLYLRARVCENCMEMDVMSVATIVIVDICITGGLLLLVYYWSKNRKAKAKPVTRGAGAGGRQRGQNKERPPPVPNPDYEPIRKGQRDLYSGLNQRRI
Chain of CD3 on effector cells (human Pan-T or PBMC) (P04234 22-171, chain 2 of 4): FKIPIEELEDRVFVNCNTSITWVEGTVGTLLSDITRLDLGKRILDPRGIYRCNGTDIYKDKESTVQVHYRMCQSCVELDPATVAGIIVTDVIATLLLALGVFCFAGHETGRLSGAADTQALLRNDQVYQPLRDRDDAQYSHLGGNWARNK
Chain of CD3 on effector cells (human Pan-T or PBMC) (P09693 23-182, chain 3 of 4): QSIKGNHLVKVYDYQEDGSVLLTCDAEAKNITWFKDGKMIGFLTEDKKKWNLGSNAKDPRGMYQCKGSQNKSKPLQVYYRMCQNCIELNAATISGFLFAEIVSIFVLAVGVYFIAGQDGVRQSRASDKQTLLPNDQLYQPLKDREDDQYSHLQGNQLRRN
Chain of CD3 on effector cells (human Pan-T or PBMC) (P20963 22-164, chain 4 of 4): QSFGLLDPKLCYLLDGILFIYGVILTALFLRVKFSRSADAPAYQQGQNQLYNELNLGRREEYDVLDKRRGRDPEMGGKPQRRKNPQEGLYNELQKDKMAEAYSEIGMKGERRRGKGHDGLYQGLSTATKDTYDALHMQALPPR

B1: ABL-CD3-32 (antibody, V domains shown)
VH: EVQLVESGGGLVKPGGSLRLSCEASGFTFSSYNMNWVRQAPGKGLEWVSSISSSSSYIYYTDSVKGRFTISRDNAKNSLYLQMNSLRAEDTAVYYCARAERGSYAFDFWGQGTMVTVSS
VL: not shown
notes: Chimeric hybridoma mAb: human V, CH1, upper hinge; mouse middle hinge, CH2, CH3
For the molecule B1, in [1], the dissociation constant (Kd) was determined as 31.6 nM, the koff was 0.00962 s⁻¹ and the association rate constant (kon) was 305000 M⁻¹ s⁻¹. Moreover, in assay [2], the Kd was 38.9 nM, the koff was 0.0152 s⁻¹ and the on-rate (kon) was 390000 M⁻¹ s⁻¹.

B2: ABL-CD3-36 (antibody, V domains shown)
VH: EVQLVESGGGLVQRGGSLRLSCAASGFTFSNYWMSWVRQAPGKGLEWVANIKEDGSEKYCVDSVKGRFTISRDNAKHSLYLQMNSLRAEDTAVYYCARERRTGYFDYWGQGTLVTVSS
VL: DIQMTQSPSTLSASVGDRVTITCRASQSISSWLAWFQQKTGKAPKLLIYKASSLESGVPSRFSGSGSGTEFTLTISSLQPDDFATYYCQQYISYSWTFGQGTKVEIK
notes: as for B1
Regarding B2, in [3], the Kd was determined as 4.18 nM, the dissociation rate constant (koff) was found to be 0.00729 s⁻¹ and the kon amounted to 1.74e+06 M⁻¹ s⁻¹. In addition, in assay [4], the Kd is 25 nM, the Response is 0.49, the off-rate (koff) was 0.00101 s⁻¹ and the on-rate constant (kon) came to 40400 M⁻¹ s⁻¹.

B3: ABL-CD3-39 (antibody, V domains shown)
VH: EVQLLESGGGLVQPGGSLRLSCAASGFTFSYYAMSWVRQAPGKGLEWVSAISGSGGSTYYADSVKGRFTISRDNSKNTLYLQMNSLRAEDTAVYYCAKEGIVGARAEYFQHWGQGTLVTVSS
VL: DVVMTQSPLSLPVTLGQPASISCRSSQSLVYSDGNTYLTWFQQRPGQSPRRLIYKVSNRDSGVPDRFSGSGSGTDFTLKISRVEAEDVEIYYCMQGTHWPLTFGGGTKVEIK
notes: as for B1
As for B3, in assay [5], the dissociation constant (Kd) is below 1 pM, the dissociation rate constant (koff) was below 1e-07 s⁻¹ and the kon came out at 50000 M⁻¹ s⁻¹. Further, in assay [4], the equilibrium dissociation constant (Kd) turned out to be 8.32 nM, the Response came out at 0.41, the koff turned out to be 0.000307 s⁻¹ and the kon came out at 36900 M⁻¹ s⁻¹.

B4: ABL-CD3-31 (antibody, V domains shown)
VH: EVQLVQSGAEVKKPGESLKISCKGSGYSFTNYWIGWVRQMPGKGLEWMGIIYPADSDTTYSPSFQGQVTISADKSITTAYLQWSSLKASDTAMYYCARHGGSYILDAFDIWGQGTMVTVSS
VL: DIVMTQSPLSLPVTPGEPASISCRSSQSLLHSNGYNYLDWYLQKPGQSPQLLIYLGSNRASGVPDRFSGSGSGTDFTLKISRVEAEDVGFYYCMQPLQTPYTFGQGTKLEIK
notes: as for B1
B4: in assay [6], the Kd amounted to 5.64 nM, the off-rate constant (koff) worked out at 0.00173 s⁻¹ and the kon worked out at 306000 M⁻¹ s⁻¹. In assay [7], the Kd came to 6.66 nM, the koff is 0.00149 s⁻¹ and the kon was found to be 223000 M⁻¹ s⁻¹.

B5: ABL-CD3-27 (antibody, V domains shown)
VH: QVQLVQSGAEVKKPGASLKVSCKASGYTFTSYYMHWVRQAPGQGLEWMGIINPSNGNTISAQKFQGRVTMTRDTSTSTVYMEMSSLRSEDTAVYYCVRCWGYYVMDVWGQGTTVTVSS
VL: QTVVTQEPSFSVSPGGTVTLTCGLNSGSVSTSYYPSWYQQTPGQTPRTLIYSTNTRSSGVPDRFSGSILGNKAALTITGAQADDESDYYCVLYMGSGIWVFGGGTKLTVL
notes: as for B1
B5: in assay [8], the Kd worked out at 2.31 nM, the Response amounted to 0.39, the koff is 0.000528 s⁻¹ and the kon worked out at 228000 M⁻¹ s⁻¹. Moreover, in [9], the Kd was 3.65 nM, the off-rate (koff) came out at 0.00156 s⁻¹ and the kon was 428000 M⁻¹ s⁻¹.

B6: ABL-CD3-22 (antibody, V domains shown)
VH: EVQLVESGGGLVQPGGSLRLSCAASGFTFSSYSMNWVRQAPGKGLEWVSYISSSSSTIYYADSVKGRFTISRDNAKNSLYLQMNSLRDEDTAVYYCARDGPVDYGMDVWGQGTTVTVSS
VL: SYELTQPPSVSVSPGQTARITCSGDALPKQYTYWCQQKPGQAPVLVIYKDSERPSGIPERFSGSSSGTTVTLTISGVQAEDEADYYCQSADSSGTYRVFGGGTKLTVL
notes: as for B1
In the case of B6, in [8], the equilibrium dissociation constant (Kd) is 49.2 nM, the Response worked out at 0.08, the koff was 0.00513 s⁻¹ and the kon came to 104000 M⁻¹ s⁻¹. In assay [10], the Kd is 14.4 nM, the koff is 0.00639 s⁻¹ and the on-rate constant (kon) was 444000 M⁻¹ s⁻¹.

B7: ABL-CD3-61 (antibody, V domains shown)
VH: EVQLVESGGGLVKPGGSLRLSCAASGFTFSSYSMNWVRQAPGKGLEWVSSISRSGTYIYYADSVKGRFTISRDNAKNSLYLQMNSLRAEDTAVYYCARERWELLYFDYWGQGTLVTVSS
VL: QTVVTQEPSLTVSPGGTVTLTCASSTGAVTSGYYPNWFQQKPGQAPRALIYSTSNKHSWTPARFSGSLLGGKAALTLSGVQPEDEAEYYCLLYYGGAYVFGTGTKVTVL
notes: as for B1
Take B7: in assay [11], the Kd was found to be 69.2 nM, the dissociation rate constant (koff) was 0.0402 s⁻¹ and the kon came out at 581000 M⁻¹ s⁻¹. Besides, in [12], the Kd was found to be 117 nM, the Response was 0.26, the koff was 0.0218 s⁻¹ and the kon worked out at 187000 M⁻¹ s⁻¹.

B8: ABL-CD3-37 (antibody, V domains shown)
VH: EVQLVESGGGLVQPGGSLRLSCAASGFSFSSYSMNWVRQAPGKGLEWVSHIRSSTYSIYYADSVMGRFTISRDNAKNSLYLQMNSLRDEDTAVYFCARAKTGGDAFDIWGQGTMVTVSS
VL: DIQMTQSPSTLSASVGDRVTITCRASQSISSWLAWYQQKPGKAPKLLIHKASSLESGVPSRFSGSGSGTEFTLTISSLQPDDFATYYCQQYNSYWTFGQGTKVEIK
notes: as for B1
As to B8, in [13], the dissociation constant (Kd) is 1.43 nM, the off-rate (koff) came to 0.00269 s⁻¹ and the on-rate (kon) was 1.89e+06 M⁻¹ s⁻¹. Moreover, in [14], the Kd was determined as 17.8 nM, the off-rate constant (koff) is 0.00404 s⁻¹ and the kon amounted to 227000 M⁻¹ s⁻¹.

B9: CD3 × CD33-BspAb66 (bispecific antibody, human IgG1, kappa)
scFv: EVQLVESGGGLVQPGRSLRLSCAASGFTFDDYAMHWVRQAPGKGLEWVSGISWNSGSIGYADSVKGRFTISRDNAKNSLYLQMNSLRAEDTALYYCAKDSRGYGDYRLGGAYWGQGTLVTVSSGGGGSGGGGSGGGGSGGGGSEIVMTQSPATLSVSPGERATLSCRASQSVSSNLAWYQQKPGQAPRLLIYGASTRATGIPARFSGSGSGTEFTLTISSLQSEDFAVYYCQQYNNWPWTFGQGTKVEIKTSGPGGPDKTHTCPPCPAPEFEGGPSVFLFPPKPKDTLMISRTPEVTCVVVDVSHEDPEVKFNWYVDGVEVHNAKTKPREEQYNSTYRVVSVLTVLHQDWLNGKEYKCKVSNKALPASIEKTISKAKGQPREPQVYTLPPCREEMTKNQVSLWCLVKGFYPSDIAVEWESNGQPENNYKTTPPVLDSDGSFFLYSKLTVDKSRWQQGNVFSCSVMHEALHNHYTQKSLSLSPGK
heavy: EVQLVQSGAEVKKPGSSVKVSCKASGYTITDSNIHWVRQAPGQSLEWIGYIYPYNGGTDYNQKFKNRATLTVDNPTNTAYMELSSLRSEDTAFYYCVNGNPWLAYWGQGTLVTVSSASTKGPSVFPLAPSSKSTSGGTAALGCLVKDYFPEPVTVSWNSGALTSGVHTFPAVLQSSGLYSLSSVVTVPSSSLGTQTYICNVNHKPSNTKVDKRVEPKSCDKTHTCPPCPAPEFEGGPSVFLFPPKPKDTLMISRTPEVTCVVVDVSHEDPEVKFNWYVDGVEVHNAKTKPREEQYNSTYRVVSVLTVLHQDWLNGKEYKCKVSNKALPASIEKTISKAKGQPREPQVCTLPPSREEMTKNQVSLSCAVKGFYPSDIAVEWESNGQPENNYKTTPPVLDSDGSFFLVSKLTVDKSRWQQGNVFSCSVMHEALHNRFTQKSLSLSPGK
light: DIQLTQSPSTLSASVGDRVTITCRASESLDNYGIRFLTWFQQKPGKAPKLLMYAASNQGSGVPSRFSGSGSGTEFTLTISSLQPDDFATYYCQQTKEVPWSFGQGTKVEVKRTVAAPSVFIFPPSDEQLKSGTASVVCLLNNFYPREAKVQWKVDNALQSGNSQESVTEQDSKDSTYSLSSTLTLSKADYEKHKVYACEVTHQGLSSPVTKSFNRGEC
notes: also called CD3δε-specific control antibody scFv-Fc knob/TM; CD3xCD33-BspAb66
As for B9, in the assay with recombinant CD3 proteins [15], the Kd worked out at 0.854 nM, the off-rate constant (koff) came to 1.07e-05 s⁻¹ and the association rate constant (kon) is 12500 M⁻¹ s⁻¹. Besides, in [16], the “RTCC EC50 (nM), KILR HL-60 T Cell Redirection cytotoxic assay with CD33-expressing target cells” value was 25.4 nM. Moreover, the Response with recombinant CD3 proteins [17] was 0.03.
